Data published in the supplement of paper PMC10567573.

B1: DYRK1B (parent)
chain: RFQDLVLRMLEYEPAARISPLGAL
B2: HSP90AB1 (parent)
chain: EADKNDKAVKDLVVLLFETALLSS

Variants of: B1
Assay: protein stability index of a GFP-peptide fusion (GPS, HEK-293T) (PSI 1-6); higher = more stable
Settings: c terminus: a fixed tail appended
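Note: lentivirally expressed fusions sorted by FACS into six bins by GFP to DsRed ratio, PSI derived from sequencing read proportions per bin multiplied by bin number.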

Protein stability index: each site, then its substitutions
E13: H 1.76, T 4.09, L 2.27, S 2.48, A 2.87, R 1.34, D 3.04, W 3.37, N 2.11, G 1.82, Q 3.79, P 3.05, F 2.32
L7: E 1.8, M 2.13, N 1.41, T 2.3, G 1.18, R 1.58, K 1.51, P 2.25, S 2.05, F 2.9, H 1.03, Q 1.69, Y 1.38
R1: D 1.54, M 3.36, N 2.94, P 3.11, H 2.31, W 3, F 3.52, S 4.75, T 2.57, Y 2.47, K 2.19, G 1.58
L10: A 3.32, H 1.17, P 2.37, M 2.05, N 1.64, D 1.92, I 1.96, Q 1.6, G 1.66, T 2.19, E 1.27
Y12: G 1.6, Q 1.44, N 1.65, P 2, M 2.22, V 3.06, T 1.04, D 1.99, S 2.61, E 1.05, W 2.82
F2: Q 3.35, Y 3.05, P 1.76, R 2.38, D 2.38, C 2.36, T 2.42, M 3.25, G 2.18, K 2.15, W 1.39, E 3.27, H 2.53, V 3.5, N 2.14
L5: V 2.42, N 2.28, F 2.62, R 1.2, E 1.02, Y 2.06, K 1.91, H 1.36, G 1.4, C 3.97, W 2, D 2.71, M 3.17, P 2.16, A 2.01, Q 1.1, T 1.49
Q3: N 2.28, T 3.41, Y 3.44, K 2.03, E 2.19, R 1.19, H 1.95, P 2.05, S 2.84, D 1.82, I 2.91, V 4.49
E11: V 3.51, R 2.66, Q 2.81, N 2.21, T 3.67, A 1.56, Y 3.21, M 3.73, L 2.25, P 3.04, H 2.96
M9: E 1.98, H 2.78, F 2.77, G 1.33, L 2.7, D 3.29, K 1.53, N 2.33, S 1.09, R 1.86, T 1.83
V6: D 2.24, Y 2.18, I 2.23, G 1.88, A 2.26, Q 2.12, H 2.01, L 1.77, T 2.07, S 1.91, R 2, P 2.58, W 1.03, K 1.51, N 2.78
R8: I 2.21, M 3.14, C 2.22, H 1.85, L 1.89, P 2.23, G 1.33, D 1.31, A 4.01, E 2.06
D4: N 1.91, H 2.78, V 3.69, R 2.31, I 1.1, K 2.07, S 2.88

Variants of: B2
Assay: as above
Settings: c terminus: a fixed tail appended

Protein stability index of substitutions, site by site:
F17: W 2.26, T 3.67, S 3.89, I 1.84, P 4.3, N 3.94, M 2.1, A 3.56, H 3.13, Y 2.13, E 4.22, Q 3.82, C 2.59, V 1.92, K 3.76, R 3.31, D 4.65, G 4.26, L 1.76
E18: R 2.21, T 2.01, W 2.79, I 3.81, Q 1.77, P 2.73, F 3.16, D 1.33, H 2.07, K 2.42, A 2.2, C 1.82, M 3, G 4.31, S 2.16, L 2.61, N 1.7, V 4.33
L22: W 1.64, Y 1.5, S 2.7, A 2.85, T 2.29, M 1.86, V 2.17, H 2.18, E 2.95, G 2.77, D 3.01, F 1.8, Q 2.29, N 2.68, R 2.09
V14: W 1.92, Y 1.88
A20: P 2.27, E 2.43, N 2.16, I 2.19, M 1.97, D 2.85, L 1.44, G 2.46, V 1.88, C 1.47, F 2.42, S 2.8, R 2.42, T 1.99, Y 1.44, W 2.07, Q 2.44
L21: D 2.57, C 2.14, P 2.88, G 2.58, R 2.11, S 2.28, I 2.17, Y 1.48, V 1.94, T 2.79, K 2.35, N 3.31, F 2.13, M 1.86, A 2.49, H 2.27
L16: H 3.34, G 4.18, T 3.63, C 3.07, K 3.62, A 3.56, Y 2.27, F 1.69, D 4.88, W 2.2, S 3.94, R 3.37, E 4.31, V 2.16, Q 4.37, P 4.67, N 4.05, I 2.07
L15: C 2.15, T 2.71, E 3.5, R 2.64, P 4.06, W 3.99, D 3.61, K 2.48, H 2.69, Q 3.06, A 2.52, I 1.95, N 3.62, Y 2.04, S 2.77, V 1.5, M 1.92, G 3.23
S23: A 2.21, P 1.96, K 1.91, T 2.15, W 2.27, F 1.68, I 3.41, M 2.65, L 3.33, Q 1.64, N 1.96, D 2.26, H 2.26, Y 1.63, G 1.95, V 2.41, C 2.22, R 2.54
S24: L 2.06, Y 2.04, M 2.16, H 1.89, C 1.4, Q 1.67, N 2.13, F 2.11, D 1.93, W 1.75, P 2.72, E 1.93, R 1.65, T 1.91, V 2.29, I 1.51
T19: Y 2.02, I 2.92, S 2.15, C 2.54, A 1.42, K 2.2, F 2.57, R 1.99, D 2.32, H 2.2, G 2.49, M 2.29, Q 1.75, V 2.11, W 2.52, P 1.83, E 2.71, L 1.98, N 2.15
